Key:
Human mPB CD34+ cells = test: Proliferative activity on human granulocyte progenitors (flow cytometry); type: cell-based; conditions: for Number of CD45RA− CD41−: 7 days
Procedure: Human mPB CD34^+ cells were purchased from AllCells. Cells were resuspended in HSC expansion medium (StemSpan SFEM, StemCell Technologies) supplemented with 1× antibiotics and the following recombinant human cytokines thrombopoietin, IL6, Flt3 ligand, and stem cell factor (100 ng/mL, R & D Systems), then plated in 96-well plates (1000 cells per well), with varied concentrations of BLV1H12-bGCSF fusion antibodies. Cells were cultured for 7 days at 37° C. in a 5% CO2 incubator, then analyzed by flow cytometry to measure cell number and expression of CD45ra and CD41. Cells were stained in staining medium (HBSS supplemented with 2% FBS and 2 mM EDTA) at 4° C. for 1 h with PECy7 anti-CD45ra and eFluor 450 anti-CD41 (eBiosciences), then washed with staining medium and analyzed. Multicolor analysis for cell phenotyping was performed on a LSR II flow cytometer (Becton Dickinson). FIGS. 10A-10E and Tables 9-10 show the human granulocyte progenitor cell proliferative activities of the Ab-GCSF fusion antibodies.

Parental U2OS = test: Flow cytometry binding to parental cells; conditions: cell culture supernatant containing expressed IgG, anti-Human Fc detection
Procedure: Briefly, a cell line expressing functionally validated CXCR1 derived from U2OS cells was obtained from DiscoveRx and cultured per manufacturer's instructions (Cat#93-0226C3, DiscoveRx Corporation, Freemont, Calif.). The parental cell line U20S was obtained from ATCC and cultured under the same conditions as the CXCR1 cells. Cell culture supernatants from Example 2 above were then tested for binding to cells by flow cytometry. The adherent U20S or CXCR1-U20S cells were dissociated with Accutase (Innovative Cell Technologies, Inc., San Diego, Calif.), neutralized with an equal volume of media containing 10% serum, centrifuged at 1000 g, and resuspended in PBS with 2% BSA. Next, cells were dispensed into microtiter plates to achieve between 30,000 to 300,000 cells per well, centrifuged again, and resuspended in cell culture supernatant containing expressed IgG, or a dilution of IgG-containing cell culture supernatant. A fluorescent-conjugated anti-Human Fc antibody was used to detect binding of the expressedBLV1H12-IL8 fusion proteins to cells.

[1] = Pharmacokinetics of BLV1H12-bGCSF fusion antibodies in mice; type: in vivo; conditions: BALB/c mice, 70 μg injected
Procedure: For PK study in mice, 70 μg of the immunoglobulin constructs described herein were injected into 3 BALB/c mice per group. Blood samples were drawn from time 0 to 14 days with extended intervals and analyzed by ELISA using anti-human IgG Fc antibody with horseradish peroxidase (HRP) labeled (KPL) and anti-6×His antibody with HRP labeled (Clontech). Data were normalized by taking maximal concentration at the first time point (30 min).

TF-1 cells = test: Proliferation assay on TF-1 cells (AlamarBlue); type: cell-based; conditions: 72 h
Procedure: TF-1 cells were obtained from American Type Culture Collection (ATCC), VA, and cultured in RPMI-1640 medium supplemented with 10% fetal bovine serum (FBS), penicillin, streptomycin and 2 ng/mL granulocyte-macrophage colony-stimulating factor (GM-CSF). For proliferation assay, TF-1 cells were washed three times with RPMI-1640 medium and resuspended in RPMI-1640 medium with 10% FBS and penicillin and streptomycin at a density of 1.5×10^5 cells/ml. Cells were plated in 96-well plates and treated with varied concentrations of BLV1H12-hEPO fusion antibodies. After 72 h of incubation at 37° C. with 5% CO2, cells viabilities were measured using AlamarBlue (Invitrogen) assay following manufacture's instruction. FIG. 21 and Table 18 show the proliferative activity of Ab-hEPO fusion antibodies on TF1 cells.

B1: Ab: bovine BLV1H12 antibody with ultralong CDR3, no inserted polypeptide; heavy chain SEQ ID NO: 24, light chain SEQ ID NO: 23 (antibody)
heavy: QVQLRESGPSLVKPSQTLSLTCTASGFSLSDKAVGWVRQAPGKALEWLGSIDTGGNTGYNPGLKSRLSITKDNSKSQVSLSVSSVTTEDSATYYCTSVHQETKKYQSCPDGYRERSDCSNRPACGTSDCCRVSVFGNCLTTLPVSYSYTYNYEWHVDVWGQGLLVTVSS
light: QAVLNQPSSVSGSLGQRVSITCSGSSSNVGNGYVSWYQLIPGSAPRTLIYGDTSRASGVPDRFSGSRSGNTATLTISSLQAEDEADYFCASAEDSSSNAVFGSGTTLTVLGQPKSPPSVTLFPPSTEELNGNKATLVCLISDFYPGSVTVVWKADGSTITRNVETTRASKQSNSKYAASSYLSLTSSDWKSKGSYSCEVTHEGSTVTKTVKPSECS
human granulocyte progenitor cell proliferative activity (Human mPB CD34+ cells): lack of proliferative activity | Number of CD45RA− CD41− (Human mPB CD34+ cells; 0.28959 ng/mL): 3666 | Number of CD45RA− CD41− (Human mPB CD34+ cells; 0.86877 ng/mL): 3839 | Number of CD45RA− CD41− (Human mPB CD34+ cells; 2.60631 ng/mL): 3852 | Number of CD45RA− CD41− (Human mPB CD34+ cells; 23.45679 ng/mL): 3519 | Number of CD45RA− CD41− (Human mPB CD34+ cells; 70.37037 ng/mL): 3541 | Number of CD45RA− CD41− (Human mPB CD34+ cells; 211.11111 ng/mL): 3606 | Number of CD45RA− CD41− (Human mPB CD34+ cells; 5700 ng/mL): 4100 | Median Arbitrary Fluorescence Units (AFU) (Parental U2OS): 4 AFU | Percentage (normalized to maximal concentration at the first time point, 30 min) ([1]; day 0.021): 100.00% | Percentage (normalized to maximal concentration at the first time point, 30 min) ([1]; day 0.042): 106.09% | Percentage (normalized to maximal concentration at the first time point, 30 min) ([1]; day 0.083): 95.88% | Percentage (normalized to maximal concentration at the first time point, 30 min) ([1]; day 0.125): 86.54% | Percentage (normalized to maximal concentration at the first time point, 30 min) ([1]; day 0.250): 74.26% | Percentage (normalized to maximal concentration at the first time point, 30 min) ([1]; day 1.000): 52.43% | Percentage (normalized to maximal concentration at the first time point, 30 min) ([1]; day 2.000): 39.46% | Percentage (normalized to maximal concentration at the first time point, 30 min) ([1]; day 3.000): 36.97% | Percentage (normalized to maximal concentration at the first time point, 30 min) ([1]; day 8.000): 45.44% | Percentage (normalized to maximal concentration at the first time point, 30 min) ([1]; day 10.000): 40.98% | Percentage (normalized to maximal concentration at the first time point, 30 min) ([1]; day 14.000): 51.96% | F.I. (AlamarBlue, cell viability) (TF-1 cells; 0.00236 nM): 4274.07 | F.I. (AlamarBlue, cell viability) (TF-1 cells; 0.01178 nM): 4267.586 | F.I. (AlamarBlue, cell viability) (TF-1 cells; 0.05888 nM): 3905.529 | F.I. (AlamarBlue, cell viability) (TF-1 cells; 0.2944 nM): 4091.452 | F.I. (AlamarBlue, cell viability) (TF-1 cells; 1.472 nM): 4109.106 | F.I. (AlamarBlue, cell viability) (TF-1 cells; 7.36 nM): 4071.234 | F.I. (AlamarBlue, cell viability) (TF-1 cells; 36.8 nM): 4100.011 | F.I. (AlamarBlue, cell viability) (TF-1 cells; 184 nM): 4413.497 | F.I. (AlamarBlue, cell viability) (TF-1 cells; 4.71E−04 nM): 4223.257 | F.I. (AlamarBlue, cell viability) (TF-1 cells; 9.42E−05 nM): 4108.119

Reference: patent publication US20140050720A1, “ULTRALONG COMPLEMENTARITY DETERMINING REGIONS AND USES THEREOF” (THE SCRIPPS RESEARCH INSTITUTE, priority 2012, published 2014)
